According to the supplement of paper PMC10126150:
± gives the standard deviation of the averaged measurements.

Test system: ATP
Test: switch fluorescence ratio, 500 uM ATP over buffer (Cy3 cluster intensity, sum of 5 cycles each) (fold (ratio)); higher = stronger signal-on switching upon ATP binding; sequences stand for … in TCGTCGGCAGCGTCAGATGTGTATAAGAGACAGTTTTTTTTTTTTTTTTTTTTTTTTT…TC
Conditions: aptamer strand: ATP DNA aptamer (quencher-CACCTGGGGGAGTATTGCGGAGGAAGG + anchor), 100 nM annealed; ATP concentration: 500 uM
Outline: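 For every switch-domain sequence, the fluorescence ratio is the mean of per-cluster values, each being summed target-cycle Cy3 intensity over summed buffer-cycle Cy3 intensity. Clusters outside 100-1000 RFU were excluded. On a modified Illumina MiSeq flow-cell, the Cy3-labelled switching-strand clusters were annealed to 100 nM quencher-labelled ATP aptamer, imaged in selection buffer and then after 15 min with 500 uM ATP at 22 °C. Five such cycles were run, with NaOH stripping and re-annealing between them.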
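Note: ATP exposure 15 min at 22 °C before imaging.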

Sequence	switch fluorescence ratio
CGTAACAATG	1.1 ± 0.034
CGTAACTGGT	0.978 ± 0.018
CGTAAGCGAG	1.03 ± 0.062
CGTAAGGGGA	1.05 ± 0.064
CGTAAGTGCA	1 ± 0.024
CGTAATAGTC	1.81 ± 0.15
CGTAATGGCA	1.01 ± 0.017
CGTAATGTCT	1.06 ± 0.031
CGTAATGTTA	1.01 ± 0.019
CGTACATGAG	1.02 ± 0.037
CGTACATGAT	1.02 ± 0.022
CGTACGAAGG	0.971 ± 0.028
CGTACGAATG	0.9769 ± 0.007
CGTACGGTCT	1.05 ± 0.059
CGTACGTGGC	1.125 ± 0.0035
CGTACGTTG	1 ± 0.022
CGTACTGAAA	1.04 ± 0.0087
CGTACTGTGG	0.9977 ± 0.0099
CGTAGATACA	1.03 ± 0.036
CGTAGCGGGG	1.11 ± 0.022
CGTAGGATGT	1.02 ± 0.044
CGTAGGGGTA	1.11 ± 0.32
CGTAGGTGTG	1.02 ± 0.021
CGTAGTAACT	1.11 ± 0.022
CGTAGTATAG	1.24 ± 0.017

Sequence	switch fluorescence ratio
CGTAGTCTGG	1.05 ± 0.038
CGTAGTGGCT	1.04 ± 0.04
CGTATAAGAG	0.991 ± 0.027
CGTATAATAG	1.02 ± 0.04
CGTATATTGT	0.983 ± 0.061
CGTATCATTG	0.997 ± 0.042
CGTATCCGGT	1.03 ± 0.0019
CGTATCCGTA	0.987 ± 0.042
CGTATGATAG	1.015 ± 0.0047
CGTATGCAAA	1.06 ± 0.058
CGTATGCGCA	0.97 ± 0.028
CGTATGGGAG	0.9452 ± 0.0036
CGTATGGGTG	1.02 ± 0.04
CGTATGGTTA	1.02 ± 0.038
CGTATTAAGC	0.955 ± 0.015
CGTATTAGTA	0.9926 ± 0.0054
CGTATTATTG	1.01 ± 0.02
CGTATTCGTA	0.978 ± 0.019
CGTATTTAAA	1.01 ± 0.013
CGTCAATTAT	1.14 ± 0.054
CGTCACATGT	1.009 ± 0.0048
CGTCACCATG	1.037 ± 0.0026
CGTCATATTA	1.008 ± 0.0025
CGTCATCCAT	0.9881 ± 0.0021
CGTCCACGGA	0.9936 ± 0.0096

Sequence	switch fluorescence ratio
CGTCCAGCGT	1.2 ± 0.067
CGTCCGAAGG	1.03 ± 0.041
CGTCCGACTT	1.2 ± 0.089
CGTCCTGGGG	1.12 ± 0.048
CGTCGCAGAA	1.093 ± 0.004
CGTCGCGTAT	1.03 ± 0.021
CGTCGCTGGG	1.0111 ± 0.00071
CGTCGCTTTT	1.022 ± 0.0052
CGTCGGGGGG	1.008 ± 0.008
CGTCGGGGTG	1 ± 0.017
CGTCGGTAAG	1.04 ± 0.027
CGTCTAGAA	0.963 ± 0.048
CGTCTGATAG	0.99 ± 0.033
CGTCTGGGGG	1.01 ± 0.021
CGTGAAAAGA	0.986 ± 0.033
CGTGAAAGCT	1.18 ± 0.037
CGTGAAAGTA	0.996 ± 0.049
CGTGAAGCGT	0.998 ± 0.039
CGTGAAGTCG	0.954 ± 0.025
CGTGAATTTT	1 ± 0.037
CGTGAGGATT	1 ± 0.022
CGTGAGGGTC	1 ± 0.059
CGTGAGGTGA	1.01 ± 0.035
CGTGAGTACG	0.992 ± 0.01
CGTGATATCT	1.05 ± 0.018

Sequence	switch fluorescence ratio
CGTGATTACT	1.17 ± 0.11
CGTGCACCGG	1 ± 0.031
CGTGCCCGGA	1.03 ± 0.032
CGTGCCCGGT	1.02 ± 0.022
CGTGCCGTGG	0.995 ± 0.024
CGTGCGGGAA	1.004 ± 0.0069
CGTGCTCAGG	1.162 ± 0.011
CGTGCTTTTT	1.01 ± 0.018
CGTGGAGGTA	0.985 ± 0.041
CGTGGAGGTG	1.07 ± 0.036
CGTGGCAGGG	0.984 ± 0.033
CGTGGGATAT	1.0053 ± 0.00092
CGTGGGCGTG	0.9797 ± 0.0013
CGTGGGGAAG	0.998 ± 0.023
CGTGGGGATC	1.06 ± 0.022
CGTGGGGGAG	1.02 ± 0.066
CGTGGGGGCT	1 ± 0.019
CGTGGGGGTG	0.993 ± 0.029
CGTGGTGGGT	0.963 ± 0.025
CGTGGTTAGT	0.964 ± 0.023
CGTGGTTGAG	0.976 ± 0.018
CGTGTAATGG	1.042 ± 0.0015
CGTGTATATG	1.01 ± 0.029
CGTGTATGGG	1 ± 0.037
CGTGTCAGGG	1 ± 0.034
